Experimental data taken from publication PMC5630700 (2017).

What was measured:
[1] = biological target: purified recombinant MARV (Marburg Musoke) nucleoprotein polymer (Marburg virus Musoke, UniProt P27588 1-695); test: ELISA
[2] = biological target: mbp-NP600 fusion protein (Marburg virus Musoke, UniProt P27588 601-695); test: ELISA
Chain of mbp-NP600 fusion protein (P27588 601-695): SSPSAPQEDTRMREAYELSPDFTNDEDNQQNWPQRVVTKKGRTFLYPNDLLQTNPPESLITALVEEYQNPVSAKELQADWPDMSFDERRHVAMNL

Chain of purified recombinant MARV (Marburg Musoke) nucleoprotein polymer (P27588 whole entry, the tested form may be a part): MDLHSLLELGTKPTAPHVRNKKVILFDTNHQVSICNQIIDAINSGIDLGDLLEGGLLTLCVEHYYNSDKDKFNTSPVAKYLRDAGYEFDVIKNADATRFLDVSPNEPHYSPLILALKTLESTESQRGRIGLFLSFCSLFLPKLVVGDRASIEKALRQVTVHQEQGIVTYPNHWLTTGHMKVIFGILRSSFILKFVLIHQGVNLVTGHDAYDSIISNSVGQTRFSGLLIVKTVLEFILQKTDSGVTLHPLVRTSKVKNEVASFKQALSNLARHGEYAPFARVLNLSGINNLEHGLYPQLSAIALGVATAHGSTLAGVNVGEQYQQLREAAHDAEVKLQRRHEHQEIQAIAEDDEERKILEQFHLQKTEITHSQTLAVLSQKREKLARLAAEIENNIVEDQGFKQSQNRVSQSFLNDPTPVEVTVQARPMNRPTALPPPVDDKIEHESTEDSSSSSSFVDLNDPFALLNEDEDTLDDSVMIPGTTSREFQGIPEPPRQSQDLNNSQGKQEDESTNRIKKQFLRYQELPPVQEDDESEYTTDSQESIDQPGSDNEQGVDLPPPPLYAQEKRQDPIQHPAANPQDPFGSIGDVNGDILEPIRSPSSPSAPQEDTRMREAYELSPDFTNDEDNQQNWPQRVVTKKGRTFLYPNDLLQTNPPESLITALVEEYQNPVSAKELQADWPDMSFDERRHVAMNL

B1: sdAb C–Gaussia luciferase fusion (glucibody, pecan35) (VHH)
VHH: KVQLQESGGGLVQVGGSLRLSCKASGFTFRSSAMGWYRRAPGKQRELVASLTTTGTADYGDFVKGRFTISRDNAENTVDLHMNSLKPEDTAVYYCHEDPYGMESLRYWGQGTQVTVSS
EC50 [1]: 4.1 nM
EC50 [2]: 11.9 nM

B2: sdAb B–Gaussia luciferase fusion (glucibody, pecan35) (VHH)
VHH: KVQLQESGGGLVQAGGSLRLSCAASGGTFSINTLGWYRRAPGKEREFVARISSGGITRYADSVKGRFTISRDNGKNTVYLDMNSLKPEDTAVYYCMYRNWGGGLDVYWGQGTQVTVSS
EC50 [1]: 10.8 nM
EC50 [2]: 162 nM

B3: sdAb A–Gaussia luciferase fusion (glucibody, pecan35) (VHH)
VHH: EVKLQESGGGLVQAGESLRLSCAVPPEVFDIRTVAWYRQVPLGKGRELLSSITPWNKTTYEDSVKDRFTISRDNAKYTVYLQMNDLKPEDTAVYYCAQGWGIASMRYWGQGTQVTVSS
EC50 [1]: 2.8 nM
EC50 [2]: 14.1 nM
